We go through two molecules from US8557771B2, “Homodimer of insulinotropic peptide analogues and method for preparation thereof and use thereof” (Chongqing Fagen Biomedical Inc., priority 2009, dated 2013).

Bridge positions count the residues as written; N and C are the ends. Ends that are not written are not given here. I, II: the chains in the order shown.

The assay relates to Balb/c mice. Briefly: Blood sugar regulation in mice in vivo after intraperitoneal drug and glucose injection. Particulars: 3 hours after administration; 100 μl of 10 nmol/L drug i.p. with 200 μl of 40% glucose; FIG. 5. How it is done:
After fasting overnight, mice were intraperitoneally injected respectively with 100 μl of different drugs that were dissolved to 10 nmol/L in a 10 mmol/L sodium phosphate buffer (pH6.5), and meanwhile injected with 200 μl of glucose solution (40%). Blood was sampled at 30, 60, 120, and 180 min after drug administration and blood sugar was assayed (Blood sugar meter, LifeScan, Inc.). Then, 200 μl of glucose solution (40%) was intraperitoneally injected again at 24 hours, 48 hours, 72 hours and 96 hours after drug administration, respectively. Blood was sampled at 30 and 60 min after glucose administration and blood sugar was assayed (Blood sugar meter, LifeScan, Inc.).

B1: Di-GLP-G8C: Homodimer of GLP-G8C (SEQ ID NO: 4), formed by oxidation at the C-terminal Cys (peptide)
chain 1: HGEGTFTSDVSSYLEGQAAKEFIAWLVKGGGGGSC
chain 2: HGEGTFTSDVSSYLEGQAAKEFIAWLVKGGGGGSC
modifications: disulfide I:35-II:35
On to B1, for which the blood sugar level result is on record as “well-regulated”.

B2: Ex4C-Ex4C: Homodimer of Ex4C(NH2) (SEQ ID NO: 3), joined by a disulfide bond between the C-terminal Cys residues (peptide)
chain 1: HGEGTFTSDLSKQMEEEAVRLFIEWLKNGGSGGSC
chain 2: HGEGTFTSDLSKQMEEEAVRLFIEWLKNGGSGGSC
modifications: disulfide homodimer, C-terminal amide; Ex4C peptide sequence
In the case of B2, the blood sugar level entry was “well-regulated”.
